B1: mAb 46 (antibody, V domains shown)
VH: EGQLVESGGGLVQPGGSLRLSCVASGFTLSSYTLNWVRQAPGKGLEWVSYISSTSRTIYYSDSVKGRFTISRDNAKNSLYLQMNSLRDEDTALYYCAREDYYDSSGFDYWGQGTLVTVSS
VL: AIRMTQSPSSFSASTGDRVTITCRASQGISSYLAWYQQKPGKAPKLLIYTASTLQSGVPSRFSGSGSGTDFTLTIRSLQSEDFATYYCQQYYSYPRTFGQGTKVEIK
notes: VH and VL only
B2: mAb 51 (antibody, V domains shown)
VH: EVQLVESGGGLVQPGGSLRLSCAASGFTLSSYTMNWVRQAPGKGLEWVSYISSSSRTIYYSDSVKGRFSISRDNAKNSLYLQMNSLRDEDTALYYCAREDYYDSSGFDNWGQGTLVTVSS
VL: AIRMTQSPSSFSASTGDRVTITCRASQGISSYLAWYQQKPGKAPKLLIYTASTLQSGVPSRFSGSGSGTDFTLTIRSLQSEDFATYYCQQYYSYPRTFGQGTKVEIK
notes: VH and VL only
B3: mAb 130 (antibody, V domains shown)
VH: EVQLVESGGGLVKTGGSLRLSCVASGFSFKKAWMNWVRQAPGKGLEWVGRIKRNSDGGATDYAAPVKDRFTLSRDDSKNTLYLQMNSLKTEDTAVYYCTTLDSSSWYVGYYYMDVWGKGTTVTVSS
VL: DIHMTQSPSSVSASLGDRVTFTCRASQDINNWLAWYQQRPGKAPKLLIYTASSLQSGVPSRFSGSGSGTDFTLTISSLQPEDFATYYCQQAHSLPITFGQGTRLGIK
notes: VH and VL only
B4: mAb 120 (antibody, V domains shown)
VH: EVQLVESGGGLVKTGGSLRLSCVASGFSFKKAWMNWVRQAPGKGLEWVGRIKRNTDGGTADYAAPVKGRFTLSRDDSKKTLFLQMNSLKTEDTAVYYCTTLDSSSYYVGYYYMDVWGKGTTVTVSS
VL: DIQMTQSPSSVSASVGDRVTITCRASQDINNWLAWYQQKPGKAPKLLIYTASSLQSGVPSRFSGSGSGTDFTLTIGSLQPEDFATYYCQQAHSLPITFGQGTRLEIK
notes: VH and VL only
B5: mAb 112 (antibody, V domains shown)
VH: EVQLVESGGGLVKTGGSHRLSCVASGFSFKKAWMNWVRQAPGKGLEWVGRIKRNSDGGTTDYAAPVKGRFILSRDDSKNTLYLQMNSLKTEDTAVYYCTTLDSSSWYVGYYYMDVWGKGTTVTVSS
VL: DIQMTQSPSSVSASVGDRVTITCRASQDINNWLAWYQQKPGKAPKILIYTASNLQSGVPSRFSGSGSGTDFTLTISSLQPEDFATYFCQQAHSLPITFGQGTRLEIK
notes: VH and VL only
B6: mAb 113 (antibody, V domains shown)
VH: EVQLVESGGGLVKTGGSLRLSCVASGFSFKKAWMNWVRQAPGKGLEWVGRIKRNTDGGTTDYAAPVKGRFTLSRDDSKNTLYLQMNSLKTEDTAVYYCTTLDSSSWYVGYYYMDVWGKGTTVTVSS
VL: DIQMTQSPSSVSASVGDRVTITCRASQDINNWLAWYQQKPGKAPKILIYTASSLQSGVPSRFSGSGSGTDFTLTISSLQPEDFATYYCQQAHSLPITFGQGTRLEIK
notes: VH and VL only
B7: mAb 114 (antibody, V domains shown)
VH: EVQLVESGGGLVKTGGSLRLSCVASGFSFKKAWMNWVRQAPGKGLEWVGRIKRNTDGGPADYAAPVKGRFTLSRDDSKKTLYLQMNSLKTEDTAVYYCTTLDSSSWYVGYYYMDVWGKGTTVTVSS
VL: DIQMTQSPSSVSASVGDRVIITCRASQDINNWLAWYLQRPGKAPKLLIYAASSLQSGVPSRFSGSGSGTDFTLTIGSLQPEDFATYYCQQAHSLPITFGQGTRLEIQ
notes: VH and VL only
B8: mAb 115 (antibody, V domains shown)
VH: EVQLVESGGGLVKTGGSHRLSCVASGFSFKKAWMNWVRQAPGKGLEWVGRIKRNSDGGTTDYAAPVKGRFILSRDDSKNTLYLQMNSLKTEDTAVYYCTTLDSSSWYVGYYYMDVWGKGTTVTVSS
VL: DIQMTQSPSSVSASVGDRVTITCRASQDINNWLAWYQQKPGKAPKILIYTASNLQSGVPSRFSGSGSGTDFTLTISSLQPEDFATYFCQQAHGLPITFGQGTRLEIK
notes: VH and VL only
B9: mAb 116 (antibody, V domains shown)
VH: EVQLVESGGGLVKTGGSLRLSCVASGFSFKKAWMNWVRQAPGKGLEWVGRIKRNSDGGTTDYAAPVKGRFTLSRDDSKNTLYLQMNSLKTEDTAVYYCTTLDSSSWYVGYYYMDVWGKGTTVTVSS
VL: DIQMTQSPFSVSASVGDRVTITCRASQDINNWLAWYQQKPGKAPKILIYTASSLQSGVPSRFSGSGSGTDFTLTISSLQPEDFATYYCQQAHSLPITFGQGTRLEIK
notes: VH and VL only
B10: mAb 117 (antibody, V domains shown)
VH: EVQLVESGGGLVKTGGSLRLSCVASGFSFKKAWMNWVRQAPGKGLEWVGRIKRNTDGGTTDYAAPVKGRFTLSRDDSKNTLYLQMNSLKTEDTAVYYCTTLDSSSLYVGYYYMDVWGKGTTVTVSS
VL: DIQMTQSPSSVSASVGDRVTITCRASQDINNWLAWYQQKPGKAPKLLIYTASSLQSGVPSRFSGSGSGTDFTLTISSLQPEDFATYYCQQAHSLPITFGQGTRLEIK
notes: VH and VL only
B11: mAb 122 (antibody, V domains shown)
VH: EVQLVESGGGLVKTGGSLRLSCVASGFSFKKAWMNWVRQAPGKGLEWVGRIKRNTDGGTADYAAPVKGRFTLSRDDSKKTLYLQMNSLKTEDTAVYYCTTLDSSSRYVGYYYMDVWGKGTTVTVSS
VL: DIQMTQSPSSVSASVGDRVIITCRASQDINNWLAWYQQKPGKVPKLLIYTASSLQSGVPSRFSGSGSGTDFTLTIGSLQPEDFATYYCQQAHSLPITFGQGTRLEIK
notes: VH and VL only
B12: mAb 125 (antibody, V domains shown)
VH: EVQLVESGGGLVKTGGSLRLSCVASGFSFKKAWMNWVRQAPGKGLEWVGRIKRNTDGGTADYAAPVKGRFTLSRDDSKKTLYLQMNSLKTEDTAVYYCTTLDSSSRYVGYYYMDVWGKGTTVTVSS
VL: DIQMTQSPSSVSASVGDRVIITCRASQDINNWLAWYQQKPGKVPKLLIYTASSLQSGVPSRFSGSGSGTDFTLTIGTLQPEDFATYYCQQAHSLPITFGQGTRLDIK
notes: VH and VL only
B13: mAb 73 (antibody, V domains shown)
VH: EVELVESGGGLVQPGRSLRLSCAASGFTFDDKVMHWVRQAPGKGLEWVSCINWNSGHIGYADSVKGRFTISRDNARTSLYLQMNSLRPEDTALYYCVREGNYDFWSGYYRGFFDLWGRGTLVTVSS
VL: DIQMTQSPSSLSASVGDRVTITCRASQGIRNDLGWYQQKPGKAPKRLIYAASSLQGGVPSRFSGSGSGTEFTLTISSLQPEDFATYYCLQHTSYPFTFGQGTKLEIK
notes: VH and VL only
B14: mAb 74 (antibody, V domains shown)
VH: EVQLVESGGGLVQPGRSLRLSCAASGFTFADYVMHWVRQAPGKGLEWVSGINWNNARIGYVGSVKGRFTISRDNAKNSLYLQMTSLRVEDTALYHCVREGNFDFWSAYYRGFLDLWGRGTLVTVSS
VL: DIQMTQSPSSLSASVGDRVTITCRASQGIRSDLGWYQQKPGKAPKRLIYGASSLQGGVPSRFSGSGSGTEFTLTISSLQPEDFATYYCLQHNSYPYTFGQGTKLEIK
notes: VH and VL only
B15: mAb 320 (antibody, V domains shown)
VH: QVQLVESGGGVVQPGRSLRLSCAASGFTFRSYGMHWVRQAPGKGLEWVAIIWYDGSKKYYADSVKGRFTISRDNSKNILYLQMNSLRAEDTAVYYCARQEFNWNDGGYYYMDVWGKGTTVTVSS
VL: DIQLTQSPSFLSASVGDRVTITCRASQGISSYLDWCQQKPGKAPKLLIYAASTLQSGVPSRFSGSGSGTEFTLTISSLQPEDFATYYCQQLDNYPPTFGGGTKVEIK
notes: VH and VL only

Columns and labels:
[1] = biological target: T1, human CD3e/d (human, UniProt P07766 23-126; P04234 22-105); experiment: SPR (Carterra LSA), mAb on chip
T1 construct: Bought soluble protein; also called hCD3e/d; human CD3/ed (Sino CT038-H2508H)
T1 sequence (P07766 23-126, chain 1 of 2): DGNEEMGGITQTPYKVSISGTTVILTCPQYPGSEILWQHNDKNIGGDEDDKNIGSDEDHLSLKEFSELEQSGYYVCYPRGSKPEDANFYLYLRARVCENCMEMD
T1 sequence (P04234 22-105, chain 2 of 2): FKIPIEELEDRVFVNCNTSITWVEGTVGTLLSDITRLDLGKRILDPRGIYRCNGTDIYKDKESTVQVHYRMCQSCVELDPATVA
Procedure: (§1) High-throughput surface plasmon resonance (SPR) coupled kinetic experiments were performed on a Carterra LSA® instrument equipped with an HC-30M chip type (Carterra, USA). The instrument uses two microfluidic modules, a single-flow cell (SFC) and a 96 printhead, to deliver samples to the chip surface via back-and-forth cycling of a fixed sample volume. An up to 384-ligand array is generated by docking the MFC onto each of the four nested print block locations in a serial manner.
(§2) The purified mAbs were immobilized on a Carterra LSA® HC-30M chip by direct coupling. The chip surface was first activated by flowing a freshly prepared 1:1:1 activation mix of 100 mM MES pH 5.5, 100 mM S-NHS, 400 mM EDC for 7 min. mAbs diluted to 10 μg/mL in 10 mM NaOAc pH 4.25+0.01% TWEEN®20 were then injected and printed onto the chip surface simultaneously using the MFC printhead for 10 min. Finally, the chip surface was quenched by flowing 1 M ethanolamine for 7 min (to block the excess reactive esters), followed by 2 wash steps of 15 s each in 25 mM MES pH 5.5. In addition to expressed and purified mAbs, relevant benchmarks and negative control mAbs were also printed on the chip surface.
(§3) The data were analyzed using the Carterra Kinetics analysis software. Briefly, the data were referenced with the interstitial reference spots and double-referenced to a buffer cycle, and then fit globally to a 1:1 Langmuir binding model to determine their apparent association (ka) and dissociation (kd) kinetic rate constants and binding affinity constants (KD).

[2] = biological target: T2, human CD3e/g (human, UniProt P07766 23-126; P09693 23-116); experiment: SPR (Carterra LSA), mAb on chip
T2 construct: Bought soluble protein; also called hCD3e/g; human CD3e/g (Acro CDD-C52W4)
T2 sequence (P07766 23-126, chain 1 of 2): as the sequence (P07766 23-126, chain 1 of 2) above
T2 sequence (P09693 23-116, chain 2 of 2): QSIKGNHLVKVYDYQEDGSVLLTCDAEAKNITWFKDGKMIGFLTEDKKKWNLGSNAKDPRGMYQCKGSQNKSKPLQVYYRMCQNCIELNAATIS
Procedure: as §1, §2, §3

Row | Binder | Kd [1] [nM] | Kd [2] [nM]
1 | B1 | 240 | 98.4
2 | B2 | 351 | 171
3 | B3 | 21.7 | 6.07
4 | B4 | 44.4 | 12.1
5 | B5 | 56.9 | 14.8
6 | B6 | 107 | 28.8
7 | B7 | 65.8 | 18.9
8 | B8 | 63.8 | 15.7
9 | B9 | 104 | 24.1
10 | B10 | 40.6 | 9.84
11 | B11 | 34.2 | 13
12 | B12 | 36 | 13.8
13 | B13 | – | 16.2
14 | B14 | – | 9.83
15 | B15 | – | 0.69

— patent US20230295310A1 (ABCELLERA BIOLOGICS, published 2023)
